Experimental data from patent publication US20060263802A1 (CRUCELL HOLLAND B V, published 2006).

Tests used:
Experiment in all cases: PEPSCAN ELISA, looped peptide, antibody 10 µg/ml
[1] = molecular target: looped/cyclic peptide … (rabies virus strain ERA)
[2] = molecular target: looped/cyclic peptide … (rabies virus strain ERA); remark: listed apart in the source
[3] = molecular target: looped/cyclic peptide … (rabies virus strain ERA); remark: listed apart in the source
[4] = molecular target: looped/cyclic peptide … (rabies virus strain ERA); remark: listed apart in the source
[5] = molecular target: looped/cyclic peptide … (rabies virus strain ERA); remark: listed apart in the source
[6] = molecular target: looped/cyclic peptide … (rabies virus strain ERA); remark: listed apart in the source
[7] = molecular target: looped/cyclic peptide … (rabies virus strain ERA); remark: listed apart in the source
[8] = molecular target: looped/cyclic peptide … (rabies virus strain ERA); remark: listed apart in the source
[9] = molecular target: looped/cyclic peptide … (rabies virus strain ERA); remark: listed apart in the source
[10] = molecular target: looped/cyclic peptide … (rabies virus strain ERA); remark: listed apart in the source
[11] = molecular target: looped/cyclic peptide … (rabies virus strain ERA); remark: listed apart in the source
[12] = molecular target: looped/cyclic peptide … (rabies virus strain ERA); remark: listed apart in the source
[13] = molecular target: looped/cyclic peptide … (rabies virus strain ERA); remark: listed apart in the source
[14] = molecular target: looped/cyclic peptide … (rabies virus strain ERA); remark: listed apart in the source
[15] = molecular target: looped/cyclic peptide … (rabies virus strain ERA); remark: listed apart in the source
[16] = molecular target: looped/cyclic peptide … (rabies virus strain ERA); remark: listed apart in the source
[17] = molecular target: looped/cyclic peptide … (rabies virus strain ERA); remark: listed apart in the source
[18] = molecular target: looped/cyclic peptide … (rabies virus strain ERA); remark: listed apart in the source
[19] = molecular target: looped/cyclic peptide … (rabies virus strain ERA); remark: listed apart in the source
[20] = molecular target: looped/cyclic peptide […] (rabies virus strain ERA)
[21] = molecular target: looped/cyclic peptide … (rabies virus strain ERA); remark: listed apart in the source
[22] = molecular target: looped/cyclic peptide … (rabies virus strain ERA); remark: listed apart in the source
[23] = molecular target: looped/cyclic peptide … (rabies virus strain ERA); remark: listed apart in the source
[24] = molecular target: looped/cyclic peptide … (rabies virus strain ERA); remark: listed apart in the source
[25] = molecular target: looped/cyclic peptide … (rabies virus strain ERA); remark: listed apart in the source
[26] = molecular target: looped/cyclic peptide … (rabies virus strain ERA); remark: listed apart in the source
[27] = molecular target: looped/cyclic peptide … (rabies virus strain ERA); remark: listed apart in the source
[28] = molecular target: looped/cyclic peptide … (rabies virus strain ERA); remark: listed apart in the source
[29] = molecular target: looped/cyclic peptide … (rabies virus strain ERA); remark: listed apart in the source
[30] = molecular target: looped/cyclic peptide … (rabies virus strain ERA); remark: listed apart in the source
[31] = molecular target: looped/cyclic peptide … (rabies virus strain ERA); remark: listed apart in the source
[32] = molecular target: looped/cyclic peptide … (rabies virus strain ERA); remark: listed apart in the source
[33] = molecular target: looped/cyclic peptide … (rabies virus strain ERA); remark: listed apart in the source
[34] = molecular target: looped/cyclic peptide … (rabies virus strain ERA); remark: listed apart in the source
[35] = molecular target: looped/cyclic peptide … (rabies virus strain ERA); remark: listed apart in the source
[36] = molecular target: looped/cyclic peptide … (rabies virus strain ERA); remark: listed apart in the source
[37] = molecular target: looped/cyclic peptide … (rabies virus strain ERA); remark: listed apart in the source
[38] = molecular target: looped/cyclic peptide … (rabies virus strain ERA); remark: listed apart in the source
[39] = molecular target: looped/cyclic peptide … (rabies virus strain ERA); remark: listed apart in the source
[40] = molecular target: looped/cyclic peptide … (rabies virus strain ERA); remark: listed apart in the source
[41] = molecular target: looped/cyclic peptide … (rabies virus strain ERA); remark: listed apart in the source
[42] = molecular target: looped/cyclic peptide … (rabies virus strain ERA); remark: listed apart in the source
[43] = molecular target: looped/cyclic peptide … (rabies virus strain ERA); remark: listed apart in the source
[44] = molecular target: looped/cyclic peptide … (rabies virus strain ERA); remark: listed apart in the source
[45] = molecular target: looped/cyclic peptide … (rabies virus strain ERA); remark: listed apart in the source
[46] = molecular target: looped/cyclic peptide … (rabies virus strain ERA); remark: listed apart in the source
[47] = molecular target: looped/cyclic peptide … (rabies virus strain ERA); remark: listed apart in the source
[48] = molecular target: looped/cyclic peptide DIHHLSCPNNLVVED (rabies virus strain ERA)
[49] = molecular target: looped/cyclic peptide … (rabies virus strain ERA); remark: listed apart in the source
[50] = molecular target: looped/cyclic peptide … (rabies virus strain ERA); remark: listed apart in the source
[51] = molecular target: looped/cyclic peptide … (rabies virus strain ERA); remark: listed apart in the source
[52] = molecular target: looped/cyclic peptide … (rabies virus strain ERA); remark: listed apart in the source
[53] = molecular target: looped/cyclic peptide … (rabies virus strain ERA); remark: listed apart in the source
[54] = molecular target: looped/cyclic peptide … (rabies virus strain ERA); remark: listed apart in the source
[55] = molecular target: looped/cyclic peptide … (rabies virus strain ERA); remark: listed apart in the source
[56] = molecular target: looped/cyclic peptide … (rabies virus strain ERA); remark: listed apart in the source
[57] = molecular target: looped/cyclic peptide … (rabies virus strain ERA); remark: listed apart in the source
[58] = molecular target: looped/cyclic peptide … (rabies virus strain ERA); remark: listed apart in the source
[59] = molecular target: looped/cyclic peptide … (rabies virus strain ERA); remark: listed apart in the source
[60] = molecular target: looped/cyclic peptide … (rabies virus strain ERA); remark: listed apart in the source
[61] = molecular target: looped/cyclic peptide … (rabies virus strain ERA); remark: listed apart in the source

B1: human monoclonal antibody CRJA (antibody, V domains shown)
VH: EVQLLESGGGLVQPGGSLRLSCAASGFTFSNYAMSWVRQAPGKGLEWVSAISASGHSTYLADSVKGRFTISRDNSKNTLYLQMNSLRAEDTAVYYCAKDREVTMIVVLNGGFDYWGQGTRVTVSS
VL: EIVLTQSPATLSLSPGERATLACRASQTASRYLAWYQQKPGQAPRLLIYDTSNRATGIPARFSGSGSGTDFTLSISSLEPEDFAVYYCQQRFNWPWTFGQGTKVEFK
B1 showed an OD value [1] of 88 OD, an OD value [2] of 110 OD and an OD value [3] of 71 OD. The OD value [4] was 84 OD, the OD value [5] was 84 OD and the OD value [6] was 58 OD. For the same binder, the OD value [7] was 89 OD, the OD value [8] was 89 OD and the OD value [9] was 68 OD. For the same binder, the OD value [10] was 86 OD, the OD value [11] was 86 OD and the OD value [12] was 62 OD. It also gave an OD value [13] of 86 OD, an OD value [14] of 93 OD and an OD value [15] of 78 OD. The OD value [16] was 87 OD, the OD value [17] was 151 OD and the OD value [18] was 83 OD. For the same binder, the OD value [19] was 71 OD, the OD value [20] was 186 OD and the OD value [21] was 92 OD. The OD value [22] was 100 OD, the OD value [23] was 78 OD and the OD value [24] was 96 OD. The OD value [25] was 105 OD, the OD value [26] was 112 OD and the OD value [27] was 98 OD. It also gave an OD value [28] of 57 OD, an OD value [29] of 55 OD and an OD value [30] of 83 OD. The OD value [31] was 58 OD, the OD value [32] was 117 OD and the OD value [33] was 88 OD. It also gave an OD value [34] of 78 OD, an OD value [35] of 78 OD and an OD value [36] of 92 OD. The OD value [37] was 54 OD, the OD value [38] was 55 OD and the OD value [39] was 100 OD. It also gave an OD value [40] of 72 OD, an OD value [41] of 93 OD and an OD value [42] of 45 OD. It also gave an OD value [43] of 110 OD, an OD value [44] of 83 OD and an OD value [45] of 90 OD. For the same binder, the OD value [46] was 46 OD, the OD value [47] was 96 OD and the OD value [48] was 62 OD. It also gave an OD value [49] of 96 OD, an OD value [50] of 88 OD and an OD value [51] of 83 OD. The OD value [52] was 105 OD, the OD value [53] was 71 OD and the OD value [54] was 66 OD. It also gave an OD value [55] of 72 OD, an OD value [56] of 71 OD and an OD value [57] of 104 OD. For the same binder, the OD value [58] was 118 OD, the OD value [59] was 71 OD and the OD value [60] was 92 OD. It also gave an OD value [61] of 90 OD.
